Substitutions are numbered along the chain they refer to.
T1: mouse FcγRII extracellular domain, C-terminally His-tagged (mouse, UniProt P08101 30-210)
T1 construct: the whole entry is named; also called mFcγRII; mFcgRII
T1 sequence: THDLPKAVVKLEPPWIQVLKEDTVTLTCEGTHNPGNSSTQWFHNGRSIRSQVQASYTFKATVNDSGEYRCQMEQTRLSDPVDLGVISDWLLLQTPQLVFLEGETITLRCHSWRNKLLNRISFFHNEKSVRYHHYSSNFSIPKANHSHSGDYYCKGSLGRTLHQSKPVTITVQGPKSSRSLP

T2: mouse FcγRIII extracellular domain, C-terminally His-tagged (mouse, UniProt P08508 31-215)
T2 construct: the whole entry is named; also called mFcγRIII; mFcgRIII
T2 chain: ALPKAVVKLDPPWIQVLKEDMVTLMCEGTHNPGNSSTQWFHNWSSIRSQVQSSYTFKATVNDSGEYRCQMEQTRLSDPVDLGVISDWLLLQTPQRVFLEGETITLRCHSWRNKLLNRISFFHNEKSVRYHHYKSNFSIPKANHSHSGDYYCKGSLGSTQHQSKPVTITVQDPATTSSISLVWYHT

B1: H237-MB627/MRAL-k0 (antibody, mouse IgG1, kappa)
heavy: QVQLQESGPGLVKPSETLSLTCAVSGHSISHDHAWSWVRQPPGEGLEWIGFISYSGITNYNPSLQGRVTISRDNSKNTLYLQMNSLRAEDTAVYYCARSLARTTAMDYWGEGTLVTVSSAKTTPPSVYPLAPGSAAQTNSMVTLGCLVKGYFPEPVTVTWNSGSLSSGVHTFPAVLQSDLYTLSSSVTVPSSTWPSETVTCNVAHPASSTKVDKKIVPRDCGCKPCICEVYEVELVFIFPPKPKDVLTITLTPKVTCVVVDISKDDPEVQFSWFVDDVEVHTAQTQPREEQFNSTFRSVSELPIMHQDWLNGKEFKCRVNSAAFPAPIEKTISKTKGRPKAPQVYTIPPPKEQMAKDKVSLTCMITDFFPEDITVEWQWNGQPAENYKNTQPIMDTDGSYFVYSKLNVQKSNWEAGNTFTCSVLHEGLHNHHTEKSLSHSPGK
light: not shown
notes: copies: 2 + 2
B2: H237-MB639/MRAL-k0 (antibody, mouse IgG1, kappa)
heavy: B1 heavy with V230P, Y231N, L235N
light: not shown
notes: copies: 2 + 2
B3: H237-MB630/MRAL-k0 (antibody, mouse IgG1, kappa)
heavy: B1 heavy with V230P, Y231N
light: not shown
notes: copies: 2 + 2
B4: H237-MB652/MRAL-k0 (antibody, mouse IgG1, kappa)
heavy: B1 heavy with V230N, L235F
light: not shown
notes: copies: 2 + 2
B5: H237-MB658/MRAL-k0 (antibody, mouse IgG1, kappa)
heavy: B1 heavy with E229Q, V230P, Y231N, L235F
light: not shown
notes: copies: 2 + 2
B6: H237-MB642/MRAL-k0 (antibody, mouse IgG1, kappa)
heavy: B1 heavy with V230D, L235Y
light: not shown
notes: copies: 2 + 2
B7: H237-MB629/MRAL-k0 (antibody, mouse IgG1, kappa)
heavy: B1 heavy with E229I, V230P, Y231A
light: not shown
notes: copies: 2 + 2
B8: H237-MB646/MRAL-k0 (antibody, mouse IgG1, kappa)
heavy: B1 heavy with V230P, Y231A, L235Y
light: not shown
notes: copies: 2 + 2
B9: H237-MB637/MRAL-k0 (antibody, mouse IgG1, kappa)
heavy: B1 heavy with V230P, Y231A, L235N
light: not shown
notes: copies: 2 + 2
B10: H237-MB641/MRAL-k0 (antibody, mouse IgG1, kappa)
heavy: B1 heavy with V230A, L235Y
light: not shown
notes: copies: 2 + 2
B11: H237-MB633/MRAL-k0 (antibody, mouse IgG1, kappa)
heavy: B1 heavy with V230D, L235N
light: not shown
notes: copies: 2 + 2
B12: H237-MB704/MRAL-k0 (antibody, mouse IgG1, kappa)
heavy: B1 heavy with V230P, Y231A, L235A
light: not shown
notes: copies: 2 + 2
B13: H237-MB647/MRAL-k0 (antibody, mouse IgG1, kappa)
heavy: B1 heavy with E229I, V230P, Y231A, L235Y
light: not shown
notes: copies: 2 + 2
B14: H237-MB638/MRAL-k0 (antibody, mouse IgG1, kappa)
heavy: B1 heavy with E229I, V230P, Y231A, L235N
light: not shown
notes: copies: 2 + 2
B15: H237-MB655/MRAL-k0 (antibody, mouse IgG1, kappa)
heavy: B1 heavy with V230P, Y231A, L235F
light: not shown
notes: copies: 2 + 2
B16: H237-MB708/MRAL-k0 (antibody, mouse IgG1, kappa)
heavy: B1 heavy with V230P, Y231A, L235P
light: not shown
notes: copies: 2 + 2
B17: H237-MB644/MRAL-k0 (antibody, mouse IgG1, kappa)
heavy: B1 heavy with V230T, L235Y
light: not shown
notes: copies: 2 + 2
B18: H237-MB631/MRAL-k0 (antibody, mouse IgG1, kappa)
heavy: B1 heavy with E229Q, V230P, Y231N
light: not shown
notes: copies: 2 + 2
B19: H237-MB634/MRAL-k0 (antibody, mouse IgG1, kappa)
heavy: B1 heavy with V230N, L235N
light: not shown
notes: copies: 2 + 2
B20: H237-MB628/MRAL-k0 (antibody, mouse IgG1, kappa)
heavy: B1 heavy with V230P, Y231A
light: not shown
notes: copies: 2 + 2
B21: H237-MB705/MRAL-k0 (antibody, mouse IgG1, kappa)
heavy: B1 heavy with V230P, Y231A, L235G
light: not shown
notes: copies: 2 + 2
B22: H237-MB709/MRAL-k0 (antibody, mouse IgG1, kappa)
heavy: B1 heavy with V230P, Y231A, L235T
light: not shown
notes: copies: 2 + 2
B23: H237-MB643/MRAL-k0 (antibody, mouse IgG1, kappa)
heavy: B1 heavy with V230N, L235Y
light: not shown
notes: copies: 2 + 2
B24: H237-MB654/MRAL-k0 (antibody, mouse IgG1, kappa)
heavy: B1 heavy with L235F
light: not shown
notes: copies: 2 + 2
B25: H237-MB649/MRAL-k0 (antibody, mouse IgG1, kappa)
heavy: B1 heavy with E229Q, V230P, Y231N, L235Y
light: not shown
notes: copies: 2 + 2
B26: H237-MB657/MRAL-k0 (antibody, mouse IgG1, kappa)
heavy: B1 heavy with V230P, Y231N, L235F
light: not shown
notes: copies: 2 + 2
B27: H237-MB632/MRAL-k0 (antibody, mouse IgG1, kappa)
heavy: B1 heavy with V230A, L235N
light: not shown
notes: copies: 2 + 2
B28: H237-MB710/MRAL-k0 (antibody)
heavy: B1 heavy with V230P, Y231A, L235Q
light: not shown
notes: copies: 2 + 2
B29: H237-MB653/MRAL-k0 (antibody, mouse IgG1, kappa)
heavy: B1 heavy with V230T, L235F
light: not shown
notes: copies: 2 + 2
B30: H237-MB635/MRAL-k0 (antibody, mouse IgG1, kappa)
heavy: B1 heavy with V230T, L235N
light: not shown
notes: copies: 2 + 2
B31: H237-MB648/MRAL-k0 (antibody, mouse IgG1, kappa)
heavy: B1 heavy with V230P, Y231N, L235Y
light: not shown
notes: copies: 2 + 2
B32: H237-MB713/MRAL-k0 (antibody, mouse IgG1, kappa)
heavy: B1 heavy with V230P, Y231N, L235A
light: not shown
notes: copies: 2 + 2
B33: H237-MB651/MRAL-k0 (antibody, mouse IgG1, kappa)
heavy: B1 heavy with V230D, L235F
light: not shown
notes: copies: 2 + 2
B34: H237-MB650/MRAL-k0 (antibody, mouse IgG1, kappa)
heavy: B1 heavy with V230A, L235F
light: not shown
notes: copies: 2 + 2
B35: H237-MB645/MRAL-k0 (antibody, mouse IgG1, kappa)
heavy: B1 heavy with L235Y
light: not shown
notes: copies: 2 + 2
B36: H237-MB636/MRAL-k0 (antibody, mouse IgG1, kappa)
heavy: B1 heavy with L235N
light: not shown
notes: copies: 2 + 2
B37: H237-MB640/MRAL-k0 (antibody, mouse IgG1, kappa)
heavy: B1 heavy with E229Q, V230P, Y231N, L235N
light: not shown
notes: copies: 2 + 2

Target: T1, mouse FcγRII extracellular domain, …
Assay: SPR Biacore T200, KD ratio
Procedure: (§1) Each altered antibody was analyzed for its interaction with each Fcγ receptor prepared above using Biacore T100 (GE Healthcare Japan Corp.), Biacore T200 (GE Healthcare Japan Corp.), Biacore A100, or Biacore 4000. The running buffer used was HBS-EP+ (GE Healthcare Japan Corp.). The assay temperature was set to 25° C. The sensor chips used were chips prepared by immobilizing Protein L (ACTIGEN or BioVision) onto Series S Sensor Chip CM5 (GE Healthcare Japan Corp.) or Series S Sensor Chip CM4 (GE Healthcare Japan Corp.) by the amine coupling method.
(§2) In order to calculate the KD value of each altered antibody for FcγR, kinetic analysis was conducted according to the following method: first, the antibody of interest was captured onto any of these chips and allowed to interact with mFcγR diluted with a running buffer. For the obtained sensorgram, the assay results were globally fit into the 1:1 Langmuir binding model using Biacore Evaluation Software to calculate an association rate constant ka (L/mol/s) and a dissociation rate constant kd (1/s). From these values, the dissociation constant KD (mol/L) was calculated.

relative mFcγRII-binding activity (mIgG1 = 1)	Binder
0.32 fold	B1
4.91 fold	B2
14.3 fold	B3
0.28 fold	B4
0.51 fold	B5
1.87 fold	B6
0.38 fold	B7
4.38 fold	B8
2.6 fold	B9
1.47 fold	B10
2.77 fold	B11
14.1 fold	B12
1.05 fold	B13
0.75 fold	B14
0.4 fold	B15
0.28 fold	B16
4.55 fold	B17
4.29 fold	B18
2.52 fold	B19

relative mFcγRII-binding activity (mIgG1 = 1)	Binder
2.2 fold	B20
8.71 fold	B21
0.61 fold	B22
1.66 fold	B23
0.27 fold	B24
3.89 fold	B25
1.77 fold	B26
3.64 fold	B27
50.8 fold	B28
0.41 fold	B29
5.06 fold	B30
10.8 fold	B31
23.5 fold	B32
0.3 fold	B33
0.24 fold	B34
1.17 fold	B35
4.41 fold	B36
1.06 fold	B37

Target: T2, mouse FcγRIII extracellular domain, …
Assay: SPR Biacore T200, KD ratio
Procedure: as §1, §2

relative mFcγRIII-binding activity (mIgG1 = 1)	Binder
0.09 fold	B1
0.38 fold	B2
0.25 fold	B3
0.06 fold	B4
0.06 fold	B5
0.08 fold	B6
0.04 fold	B7
0.15 fold	B8
0.15 fold	B9
0.13 fold	B10
0.17 fold	B11
0.87 fold	B12
0.1 fold	B13
0.08 fold	B14
0.06 fold	B15
0.03 fold	B16
0.3 fold	B17
0.28 fold	B18
0.21 fold	B19

relative mFcγRIII-binding activity (mIgG1 = 1)	Binder
0.06 fold	B20
0.75 fold	B21
0.04 fold	B22
0.14 fold	B23
0.07 fold	B24
0.51 fold	B25
0.08 fold	B26
0.18 fold	B27
1.22 fold	B28
0.1 fold	B29
0.29 fold	B30
0.64 fold	B31
2.5 fold	B32
0.04 fold	B33
0.05 fold	B34
0.2 fold	B35
0.14 fold	B36
0.18 fold	B37

— patent publication US20150203577A1 (Chugai, published 2015)
